Experimental data reported in the supplement of paper PMC10126150.
± gives the standard deviation of the averaged measurements.

Tested on: ATP
Assay: switch fluorescence ratio, 500 uM ATP over buffer (Cy3 cluster intensity, sum of 5 cycles each) (fold (ratio)); higher = stronger signal-on switching upon ATP binding; sequences stand for … in TCGTCGGCAGCGTCAGATGTGTATAAGAGACAGTTTTTTTTTTTTTTTTTTTTTTTTT…TC
Conditions: aptamer strand: ATP DNA aptamer (quencher-CACCTGGGGGAGTATTGCGGAGGAAGG + anchor), 100 nM annealed; ATP concentration: 500 uM
How it was run: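 Values give the fluorescence ratio for each switch-domain sequence, averaged from per-cluster ratios of summed target-cycle to summed buffer-cycle Cy3 intensity. The Cy3-labelled switching-strand clusters sat on a modified Illumina MiSeq flow-cell, were annealed to 100 nM quencher-labelled ATP aptamer, and were imaged in selection buffer, then after 15 min with 500 uM ATP at 22 °C. Five cycles ran with NaOH stripping and re-annealing between them, and clusters outside 100-1000 RFU were excluded.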
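Also: ATP exposure 15 min at 22 °C before imaging.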

Sequence	switch fluorescence ratio
GTCATAAGTG	0.982 ± 0.04
GTCATACCTT	1.2 ± 0.1
GTCATCAGTG	1.02 ± 0.027
GTCATGAGAT	0.9987 ± 0.0047
GTCATTAGCG	0.973 ± 0.012
GTCCAAATGG	0.999 ± 0.022
GTCCACAGGT	1.69 ± 0.056
GTCCAGGGGA	1.04 ± 0.1
GTCCATAGGT	1.02 ± 0.013
GTCCGCCTTG	1.07 ± 0.011
GTCCGGCAAT	2.04 ± 0.33
GTCCGGGGTC	0.972 ± 0.065
GTCCTTTCTG	0.988 ± 0.014
GTCGAAACAT	1.04 ± 0.075
GTCGAAGGTG	1.11 ± 0.03
GTCGATATTT	1.01 ± 0.026
GTCGGACGGA	0.971 ± 0.042
GTCGGATGTG	0.954 ± 0.044
GTCGGGGATA	1 ± 0.049
GTCGGGGGGG	0.999 ± 0.031
GTCGGGGGTT	1.02 ± 0.049
GTCGGTCTGG	1 ± 0.098
GTCGTAAGTT	1.01 ± 0.024
GTCGTAGGGA	0.973 ± 0.013
GTCGTCAAGT	1.006 ± 0.0073

Sequence	switch fluorescence ratio
GTCGTTGCTA	1.01 ± 0.015
GTCTAATAGT	1.03 ± 0.015
GTCTACTGCT	1.07 ± 0.028
GTCTGAAGGG	1.0152 ± 0.0004
GTCTGGGCGA	1.01 ± 0.033
GTCTTTTACG	1.005 ± 0.0013
GTCTTTTTAA	1.03 ± 0.032
GTGAAAGGCA	1.004 ± 0.005
GTGAAAGGGC	1.01 ± 0.034
GTGAAATTTT	1.01 ± 0.039
GTGAAGAAGA	0.991 ± 0.0048
GTGAAGGGGT	1 ± 0.047
GTGAAGTATT	0.983 ± 0.033
GTGACCAGAA	0.983 ± 0.025
GTGACCGCCC	1.49 ± 0.39
GTGACTTAGT	1.03 ± 0.02
GTGACTTCAA	1.027 ± 0.0059
GTGAGAAAGG	0.982 ± 0.015
GTGAGAATGT	1.02 ± 0.02
GTGAGAATTT	1.05 ± 0.075
GTGAGAGGTG	1.05 ± 0.052
GTGAGCTCAT	1.01 ± 0.04
GTGAGGACAA	1.05 ± 0.036
GTGAGGCGGA	1.07 ± 0.087
GTGAGGGGTT	0.971 ± 0.044

Sequence	switch fluorescence ratio
GTGAGTAAGG	0.9778 ± 0.00085
GTGAGTACTT	1.03 ± 0.014
GTGAGTCGGG	0.987 ± 0.02
GTGAGTTTTT	1.02 ± 0.022
GTGATAAGAA	1.009 ± 0.0057
GTGATAATGT	0.981 ± 0.027
GTGATACGGG	1.04 ± 0.021
GTGATAGTAA	1.006 ± 0.0099
GTGATATCGG	1.05 ± 0.034
GTGATCCTTC	1.03 ± 0.034
GTGATCTAGG	1.04 ± 0.033
GTGATGAGCG	0.979 ± 0.037
GTGATTAATC	1.01 ± 0.075
GTGATTGACT	1.03 ± 0.025
GTGATTGAGT	0.9707 ± 0.0089
GTGCACGTTG	1.01 ± 0.019
GTGCATGTGG	0.9701 ± 0.0056
GTGCGGAGAA	0.986 ± 0.035
GTGCTAACGG	0.9633 ± 0.0069
GTGCTAGGGT	0.988 ± 0.02
GTGCTGAATG	1.02 ± 0.016
GTGCTGGATT	1.02 ± 0.018
GTGCTGGTGG	0.9839 ± 0.0043
GTGCTGGTTT	1.05 ± 0.14
GTGCTTACGA	1.068 ± 0.01

Sequence	switch fluorescence ratio
GTGGAAGGCG	0.975 ± 0.03
GTGGAAGGGC	1.03 ± 0.079
GTGGACTTAA	0.9953 ± 0.0046
GTGGACTTTG	0.971 ± 0.053
GTGGAGGGGC	0.958 ± 0.081
GTGGATAAGA	1.0003 ± 1.9e-06
GTGGATCAAA	1.02 ± 0.049
GTGGATTTTT	0.991 ± 0.015
GTGGCACCTA	0.988 ± 0.018
GTGGCAGACC	1.01 ± 0.012
GTGGCAGGCA	0.984 ± 0.033
GTGGCATGTT	0.9788 ± 0.0038
GTGGCCATGC	1.01 ± 0.025
GTGGCCTGGA	1.01 ± 0.025
GTGGCGCTTT	0.976 ± 0.023
GTGGCGTAGG	0.981 ± 0.021
GTGGCTAACG	0.972 ± 0.06
GTGGCTGGGT	0.981 ± 0.015
GTGGGAATAT	1.001 ± 0.0083
GTGGGACAGC	1.02 ± 0.052
GTGGGACAGG	1.01 ± 0.015
GTGGGAGGAG	0.985 ± 0.031
GTGGGAGTTT	1.01 ± 0.043
GTGGGATAAA	0.969 ± 0.011
GTGGGATCTG	0.9894 ± 0.008
